One may read the stoichiometry N as a count of units in the complex or per binding partner.

The values below come from article doi:10.1101/247270.

For this assay, the target named is Dansyl-calmodulin (dansyl-CaM), purified, P0DP23. The assay is described as follows: other fluorescence titration. The note with it: remark: other sources report otherwise.

B1: Regulator of G Protein Signaling 14 (RGS14), purified recombinant protein, O08773 1-544 (natural protein)
chain: MPGKPKHLGVPNGRMVLAVSDGELTSTSGSQAQGEGRGSSLSIHSLPSGPSSPFSTDEQPVASWAQSFERLLQDPRGLAYFTEFLKKEFSAENVTFWQACERFQQIPASDTKQLAQEAHNIYHEFLSSQALSPVNIDRQAWLSEEVLAQPRPDMFRAQQLQIFNLMKFDSYARFVKSPLYQECLLAEAEGRPLREPGSSHLGSPDTARKKPKLKPGKSLPLGVEELGQLPLAEGRPLRKSFRREMPGGAVNSALRRESQGSLNSSASLDLGFLAFVSSKSESHRKSLGSGEGESESRPGKYCCVYLPDGTASLALARPGLTIRDMLAGICEKRGLSLPDIKVYLVGKEQKALVLDQDCTVLADQEVRLENRITFQLELVGLERVVRISAKPTKRLQEALQPILAKHGLSLDQVVLHRPGEKQLVDLENLVSSVASQTLVLDTLPDAKTREASSIPPCRSQGCLPRTQTKDSHLPPLSSSLSVEDASGSTGKRQTCDIEGLVELLNRVQSSGAHDQRGLLRKEDLVLPEFLQLPSQRPGSQEAPP
modifications: here or on the partner: dansyl label (position not given)
B1 registered a stoichiometry N of 1.
